Assay results: the RNAGym collection of RNA variant scans (doi:10.1093/molbev/msab373)

B1: Azoarcus group I ribozyme (parent)
chain: GUGCCUUGCGCCGGGAAACCACGCAAGGGAUGGUGUCAAAUUCGGCGAAACCUAAGCGCCCGCCCGGGCGUAUGGCAACGCCGAGCCAAGCUUCGGCGCCUGCGCCGAUGAAGGUGUAGAGACUAGACGGCACCCACCUAAGGCAAACGCUAUGGUGAAGGCAUAGUCCAGGGAGUGGCGAAAGUCACACAAACCGG

Variants of: B1
Experiment: reverse-splicing fitness (ratio to wild type); higher = more active; in vitro selection; Mg2+ level not given
Outline: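 An in vitro group I ribozyme library with randomized positions was T7-transcribed and gel-purified. In triplicate, 10 pmol RNA in EPPS pH 7.5 was reacted with 50 pmoles of a 30-nt RNA substrate for 1 h at 37 °C across several added MgCl2 levels (1–48 mM), then stopped with EDTA. Products were reverse transcribed from a substrate-complementary primer, PCR-amplified and sequenced (HiSeq 4000). Fitness is a variant's read proportion after selection over that before, normalised to wild type.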

Row | Variant | reverse-splicing fitness
1 | C82G A111U A120G A145U C169U U176G | 0.00419
2 | C82G A111U A120G A145G C150G C169U U176A | 0.0116
3 | C82G A111U A120G A145G C150G C169U U176C | 0.0128
4 | C82G A111U A120G A145G C150G C169U U176G | 0.00754
5 | C82G A111U A120U A145C C150U U176C | 0.00545
6 | C82G A111U A120U A145C C150U U176A | 0.00477
7 | C82G A111U A120U A145C C150U U176G | 0.00297
8 | C82G A111U A120U A145G C169G U176C | 0.00515
9 | C82G A111U A120U A145G C169G U176G | 0.00172
10 | C82G A111U A120U A145G C169G U176A | 0.00533
11 | C82G A111U A120G A145U C150A C169A U176C | 0.0142
12 | C82G A111U A120G A145U C150A C169A U176G | 0.00527
13 | C82G A111U A120G A145U C150A C169A U176A | 0.0161
14 | C82G A111U A120G U176G | 0.00905
15 | C82G A111U A120G U176C | 0.0216
16 | C82G A111U A120G U176A | 0.0148
17 | C82G A111U A120G C150A C169G U176C | 0.0245
18 | C82G A111U A120G C150A C169G U176A | 0.0227
19 | C82G A111U A120G C150A C169G U176G | 0.00607
20 | C82G A111U A120U A145G C150G | 0.00902
21 | C82G A111U A120U A145G C150A | 0.0109

Row | Variant | reverse-splicing fitness
22 | C82G A111U A120U A145G C150U | 0.0351
23 | C82G A111U A120U | 0.0462
24 | C82G A111U A120G A145U C150U C169A U176A | 0.0149
25 | C82G A111U A120G A145U C150U C169A U176C | 0.0128
26 | C82G A111U A120G A145U C150U C169A U176G | 0.00501
27 | C82G A111U A120U A145C U176G | 0.00404
28 | C82G A111U A120U A145C U176C | 0.0125
29 | C82G A111U A120U A145C U176A | 0.00848
30 | C82G A111U A120G A145U C150U C169U U176G | 0.00486
31 | C82G A111U A120G A145U C150U C169U U176C | 0.0167
32 | C82G A111U A120G A145U C150U C169U U176A | 0.0188
33 | C82G A111U A120U A145C C150G C169A | 0.00362
34 | C82G A111U A120U A145C C150G C169U | 0.00336
35 | C82G A111U A120U A145C C150G C169G | 0.00344
36 | C82G A111U A120U A145C C150U | 0.0116
37 | C82G A111U A120U A145C C150A | 0.00458
38 | C82G A111U A120U A145C C150G | 0.00763
39 | C82G A111U A120U A145U C150A C169A U176G | 0.00209
40 | C82G A111U A120U A145U C150A C169A U176C | 0.00255
41 | C82G A111U A120U A145U C150A C169A U176A | 0.00349
42 | C82G A111U A120G C150G U176C | 0.0117

Row | Variant | reverse-splicing fitness
43 | C82G A111U A120G C150G U176G | 0.00354
44 | C82G A111U A120G C150G U176A | 0.00658
45 | C82G A111U A120G C169G U176A | 0.0187
46 | C82G A111U A120G C169G U176C | 0.0225
47 | C82G A111U A120G C169G U176G | 0.00448
48 | C82G A111U A120G A145G C150U C169G U176A | 0.0137
49 | C82G A111U A120G A145G C150U C169G U176C | 0.0192
50 | C82G A111U A120G A145G C150U C169G U176G | 0.00526
51 | C82G A111U A120G A145U C150U C169G U176G | 0.00511
52 | C82G A111U A120G A145U C150U C169G U176C | 0.017
53 | C82G A111U A120G A145U C150U C169G U176A | 0.0145
54 | C82G A111U A120G C150U C169G U176A | 0.0168
55 | C82G A111U A120G C150U C169G U176G | 0.0053
56 | C82G A111U A120G C150U C169G U176C | 0.0205
57 | C82G A111U A120G C150A C169U U176A | 0.0244
58 | C82G A111U A120G C150A C169U U176C | 0.0215
59 | C82G A111U A120G C150A C169U U176G | 0.00759
60 | C82G A111U A120U A145C C150U C169U | 0.00298
61 | C82G A111U A120U A145C C150U C169A | 0.00282
62 | C82G A111U A120U A145C C150U C169G | 0.00286
63 | C82G A111U A120G A145U C150A C169G U176A | 0.0162

Row | Variant | reverse-splicing fitness
64 | C82G A111U A120G A145U C150A C169G U176C | 0.0163
65 | C82G A111U A120G A145U C150A C169G U176G | 0.00501
66 | C82G A111U A120G C150U C169U U176G | 0.00743
67 | C82G A111U A120G C150U C169U U176C | 0.0168
68 | C82G A111U A120G C150U C169U U176A | 0.0199
69 | C82G A111U A120U A145G C169A | 0.00459
70 | C82G A111U A120U A145G C169G | 0.00479
71 | C82G A111U A120U A145G C169U | 0.00483
72 | C82G A111U A120G C150U C169A U176G | 0.00614
73 | C82G A111U A120G C150U C169A U176A | 0.0173
74 | C82G A111U A120G C150U C169A U176C | 0.0182
75 | C82G A111U A120G A145U C150U U176C | 0.0175
76 | C82G A111U A120G A145U C150U U176A | 0.0118
77 | C82G A111U A120G A145U C150U U176G | 0.00663
78 | C82G A111U A120G A145G C150U C169U U176G | 0.00561
79 | C82G A111U A120G A145G C150U C169U U176C | 0.0151
80 | C82G A111U A120G A145G C150U C169U U176A | 0.0169
81 | C82G A111U A120U A145G C150A C169A U176G | 0.00334
82 | C82G A111U A120U A145G C150A C169A U176C | 0.00438
83 | C82G A111U A120U A145G C150A C169A U176A | 0.00821
